Patent US20040132662A1

Molecular target: Human endothelial cells (ECV304)
Test: inhibition of endothelial cell adhesion to pepsinized collagen type IV by soluble monomer

Substance: recombinant human type IV collagen NCl (α1) monomer (from UniProt P02462)
- percent inhibition of cell adhesion: 50%

Substance: recombinant type IV collagen NCl (α2) monomer (from UniProt P08572)
- percent inhibition of cell adhesion: 50%
